The values that follow come from US9199234.

As a reminder, the Kd is the free concentration of one partner at which half of the binding sites on the other are occupied at equilibrium, for simple one-to-one binding. A high value points to lower affinity.

Assay [1] addresses Chorionic Gonadotropin (CG) (UniProt P01215). In words: FRET quenching titration in solution: BHQ-10-labelled antibody, Alexa-Fluor 488-labelled antigen.
Assay [2] addresses Follicle Stimulating Hormone (FSH) (UniProt P01215). The assay is described as above.
Assay [3] concerns the target Luteinizing Hormone (LH) (UniProt P01215). The description is as above.
For assay [4], the target named is Thyroid Stimulating Hormone (TSH) (UniProt P01215). Described as above.
Assay [5] shares this target. In words: i-STAT sandwich immunoassay, recombinant TSH; row antibody on capture beads; detection ALP conjugate: M4.
The target is the same in assay [6]. In words: i-STAT sandwich immunoassay, recombinant TSH; row antibody on capture beads; detection ALP conjugate: 5409.
Assay [7] has the same target. In words: i-STAT sandwich immunoassay, recombinant TSH; row antibody on capture beads; detection ALP conjugate: T25C.
For assay [8] the target is unchanged. In words: i-STAT sandwich immunoassay, recombinant TSH; row antibody on capture beads; detection ALP conjugate: TSH Ab 544.
In assay [9] the target is Chorionic Gonadotropin (CG) (UniProt P01215). In words: i-STAT sandwich, 0.4 mIU/L TSH spiked with CG, signal increase over TSH alone; capture: row antibody; detection conjugate: 5409.
In assay [10] the target is Luteinizing Hormone (LH) (UniProt P01215). In words: i-STAT sandwich, 0.4 mIU/L TSH spiked with LH, signal increase over TSH alone; capture: row antibody; detection conjugate: 5409.
The target in assay [11] is Thyroid Stimulating Hormone (TSH) (UniProt P01215). In words: FRET competition on Alexa-488-labelled antigen (taken as TSH); excess unlabelled antibody first; competitor: BHQ-labelled M4.
The target in assay [12] is Follicle Stimulating Hormone (FSH) (UniProt P01215). In words: i-STAT sandwich, 0.4 mIU/L TSH spiked with FSH, signal increase over TSH alone; capture: row antibody; detection conjugate: 5409.
Assay [13] addresses Thyroid Stimulating Hormone (TSH) (UniProt P01215). In words: FRET competition on Alexa-488-labelled antigen (taken as TSH); excess unlabelled antibody first; competitor: BHQ-labelled 414B.
For assay [14] the target is unchanged. In words: FRET competition on Alexa-488-labelled antigen (taken as TSH); excess unlabelled antibody first; competitor: BHQ-labelled 5409.
Assay [15] has the same target. In words: FRET competition on Alexa-488-labelled antigen (taken as TSH); excess unlabelled antibody first; competitor: BHQ-labelled T25C.
For assay [16] the target is unchanged. In words: FRET competition on Alexa-488-labelled antigen (taken as TSH); excess unlabelled antibody first; competitor: BHQ-labelled ME130.
Assay [17] has the same target. In words: FRET competition on Alexa-488-labelled antigen (taken as TSH); excess unlabelled antibody first; competitor: BHQ-labelled TSH Ab 544.
Assay [18] has as its target Luteinizing Hormone (LH) (UniProt P01215). In words: i-STAT LH-detecting cartridge (LH 5304 capture beads, 414B conjugate); polystyrene LH 5304 scavenger beads in the sample; signal without beads = 100%.
Assay [19] addresses Thyroid Stimulating Hormone (TSH) (UniProt P01215). In words: i-STAT sandwich immunoassay, recombinant TSH; row antibody on capture beads; detection ALP conjugate: ME130.
Assay [20] addresses Chorionic Gonadotropin (CG) (UniProt P01215). In words: i-STAT sandwich, 0.4 mIU/L TSH spiked with CG, signal increase over TSH alone; capture: row antibody; detection conjugate: TSH Ab 544.
Assay [21] addresses Luteinizing Hormone (LH) (UniProt P01215). In words: i-STAT sandwich, 0.4 mIU/L TSH spiked with LH, signal increase over TSH alone; capture: row antibody; detection conjugate: TSH Ab 544.
For assay [22], the target named is Follicle Stimulating Hormone (FSH) (UniProt P01215). In words: i-STAT sandwich, 0.4 mIU/L TSH spiked with FSH, signal increase over TSH alone; capture: row antibody; detection conjugate: TSH Ab 544.
Assay [23] deals with Thyroid Stimulating Hormone (TSH) (UniProt P01215). In words: i-STAT sandwich immunoassay, recombinant TSH; row antibody on capture beads; detection ALP conjugate: 414B.
Assay [24] has as its target Chorionic Gonadotropin (CG) (UniProt P01215). In words: i-STAT sandwich, 0.4 mIU/L TSH spiked with CG, signal increase over TSH alone; capture: row antibody; detection conjugate: 414B.
Assay [25] has as its target Luteinizing Hormone (LH) (UniProt P01215). In words: i-STAT sandwich, 0.4 mIU/L TSH spiked with LH, signal increase over TSH alone; capture: row antibody; detection conjugate: 414B.
Assay [26] has as its target Follicle Stimulating Hormone (FSH) (UniProt P01215). In words: i-STAT sandwich, 0.4 mIU/L TSH spiked with FSH, signal increase over TSH alone; capture: row antibody; detection conjugate: 414B.
Assay [27] has as its target Chorionic Gonadotropin (CG) (UniProt P01215). In words: i-STAT sandwich, 0.4 mIU/L TSH spiked with CG, signal increase over TSH alone; capture: row antibody; detection conjugate: T25C.
For assay [28], the target named is Luteinizing Hormone (LH) (UniProt P01215). In words: i-STAT sandwich, 0.4 mIU/L TSH spiked with LH, signal increase over TSH alone; capture: row antibody; detection conjugate: T25C.
Assay [29] concerns the target Chorionic Gonadotropin (CG) (UniProt P01215). In words: i-STAT sandwich, 0.4 mIU/L TSH spiked with CG, signal increase over TSH alone; capture: row antibody; detection conjugate: ME130.
Assay [30] concerns the target Follicle Stimulating Hormone (FSH) (UniProt P01215). In words: i-STAT sandwich, 0.4 mIU/L TSH spiked with FSH, signal increase over TSH alone; capture: row antibody; detection conjugate: T25C.
In assay [31] the target is Luteinizing Hormone (LH) (UniProt P01215). In words: i-STAT sandwich, 0.4 mIU/L TSH spiked with LH, signal increase over TSH alone; capture: row antibody; detection conjugate: ME130.
Assay [32] concerns the target Follicle Stimulating Hormone (FSH) (UniProt P01215). In words: i-STAT sandwich, 0.4 mIU/L TSH spiked with FSH, signal increase over TSH alone; capture: row antibody; detection conjugate: ME130.

Regarding AbCAM ME-130 mouse monoclonal antibody, the Kd in assay [1] amounted to 45 nM; in [2] it was 70 nM; with Luteinizing Hormone (LH) [3], 54 nM; in [4], 0.04 nM. In addition, the electrochemical current of sandwich immunoassay is 50.5 nA in [5], 54.7 nA in [6], -0.1 nA in [7] and 10.8 nA in assay [8]. The substance further displayed a CG CR (%) in assay [9] of 11.8%. Further, the LH CR (%) with Luteinizing Hormone (LH) [10] came to 11.1%. Moreover, the relative fluorescence in assay [11] worked out at 0.77; in assay [13], 0.99; in [14] it was 0.82; in assay [15], 0.88; in assay [16] it was 1; in [17], 0.82. This substance also had an FSH CR (%) in [12] of 3.9%.

In the assay with Luteinizing Hormone (LH) [18], “Biospacific LH 5304 monoclonal antibody (mus beta-LH, Catalog #5304 SP-5)” had a signal remaining after scavenger beads (%) of 4%.

With “Fitzgerald 10C-CR2151M4 mouse monoclonal antibody”, the Kd in assay [1] is 554 nM; in assay [2] it was 210 nM; in the assay with Luteinizing Hormone (LH) [3] it was 300 nM; in assay [4], 0.18 nM. The electrochemical current of sandwich immunoassay in assay [6] is 20.7 nA; in assay [7] it was 22.5 nA; in [19] it was 39.9 nA; in assay [8] it was 0 nA. Moreover, the relative fluorescence was found to be 1 in assay [11]; 0.9 in [13]; 0.94 in assay [14]; 0.74 in [15]; 0.76 in [16]; 0.98 in assay [17].

As for “Seradyn anti-alpha-LH monoclonal antibody (Seradyn, Cat#MIT0414B)”, the Kd in assay [1] worked out at 0.05 nM; in [2] it was 0.1 nM; with Luteinizing Hormone (LH) [3], 0.05 nM; in assay [4] it was 0.04 nM. For the same substance, the electrochemical current of sandwich immunoassay in assay [5] worked out at 41.3 nA; in assay [6], 40.3 nA; in assay [8] it was 10.2 nA. The results for the CG CR (%) in [9] and in assay [20] were 84.6% and 39.2%, respectively. In addition, the values for the LH CR (%) with Luteinizing Hormone (LH) [10] and in the assay with Luteinizing Hormone (LH) [21] were 348% and 467%, respectively. The relative fluorescence was 0.75 in assay [11]; 1 in assay [13]; 0.81 in [14]; 0.76 in assay [15]; 0.86 in assay [16]; 0.83 in assay [17]. Besides, the values for the FSH CR (%) in assay [12] and in assay [22] were 260% and 219%, respectively.

For the substance “TSH Antibody 544 (Abbott Diagnostics Division)”, the Kd was 210 nM in assay [1], 1000 nM in [2], 1000 nM with Luteinizing Hormone (LH) [3] and 1.31 nM in assay [4]. For the same substance, the electrochemical current of sandwich immunoassay is 0.11 nA in assay [5]; 25 nA in assay [23]; 7.98 nA in assay [6]; 22.4 nA in assay [7]; 34.9 nA in assay [19]. The same substance yielded a CG CR (%) in [24] of 117%. In the assay with Luteinizing Hormone (LH) [25], the LH CR (%) came to 11.8%. Further, the relative fluorescence in assay [11] stood at 0.92; in [13], 0.89; in assay [14], 0.96; in assay [15], 0.71; in assay [16], 0.72; in [17] it was 1. In addition, the FSH CR (%) in assay [26] worked out at 7.15%.

On to “TSH capture mouse monoclonal antibody Biospacific Cat#5409 SPTNE-5”, for which the Kd was found to be 500 nM in assay [1], 1000 nM in [2], 1000 nM with Luteinizing Hormone (LH) [3] and 0.1 nM in assay [4]. Further, the electrochemical current of sandwich immunoassay in [5] was determined as 15.2 nA; in [7], 34.6 nA; in assay [19], 53.6 nA; in assay [8] it was 1.41 nA. The CG CR (%) is 0.96% in assay [27] and 0.78% in assay [29]. The values for the LH CR (%) in the assay with Luteinizing Hormone (LH) [28] and with Luteinizing Hormone (LH) [31] were 3.76% and 10.1%, respectively. The relative fluorescence in assay [11] is 0.9; in assay [13] it was 0.88; in assay [14] it was 1; in [15], 0.78; in [16] it was 0.78; in [17] it was 0.93. For the same substance, the figures for the FSH CR (%) in assay [30] and in [32] were 0.65% and 2.43%, respectively.

Consider “signaling mouse monoclonal antibody Fitzgerald Cat#10-T25C”, for which the dissociation constant Kd in assay [1] turned out to be 40 nM; in [2], 300 nM; with Luteinizing Hormone (LH) [3], 35 nM; in assay [4], 0.08 nM. Moreover, the electrochemical current of sandwich immunoassay in assay [5] was found to be 40.9 nA; in [23], 0.82 nA; in assay [6], 49.7 nA; in [19], 0.68 nA; in assay [8], 0.83 nA. The same substance returned a CG CR (%) in assay [9] of 13.7%. In the assay with Luteinizing Hormone (LH) [10], this substance yielded an LH CR (%) of 9.89%. The relative fluorescence worked out at 0.92 in assay [11]; 0.97 in assay [13]; 0.95 in assay [14]; 1 in [15]; 0.97 in assay [16]; 0.97 in [17]. The same substance showed an FSH CR (%) in assay [12] of 6.25%.
